B1: TRAF3IP2 (parent)
chain: PGQPLPGASVRGLHPVQKVILNYP

Variants of: B1
Assay: protein stability index of a GFP-peptide fusion (GPS, HEK-293T) (PSI 1-6); higher = more stable
Details: c terminus: a fixed tail appended
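Further: lentivirally expressed fusions sorted by FACS into six bins by GFP to DsRed ratio, PSI derived from sequencing read proportions per bin multiplied by bin number.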

| Variant | protein stability index |
| --- | --- |
| PGAPLPGASVRGLHPVQKVILNYP [Q3A] | 3.28 |
| PGKPLPGASVRGLHPVQKVILNYP [Q3K] | 3.09 |
| PGHPLPGASVRGLHPVQKVILNYP [Q3H] | 2.72 |
| PGQPLPGASYRGLHPVQKVILNYP [V10Y] | 3 |
| PGQPLPGASFRGLHPVQKVILNYP [V10F] | 2.36 |
| PGQPLPGASIRGLHPVQKVILNYP [V10I] | 2.84 |
| PGQPLPGASGRGLHPVQKVILNYP [V10G] | 3.54 |
| PGQPLPGASKRGLHPVQKVILNYP [V10K] | 2.89 |
| PGQPLPGASRRGLHPVQKVILNYP [V10R] | 2.57 |
| PGQPLPGASCRGLHPVQKVILNYP [V10C] | 3.29 |
| PGQPLPGGSVRGLHPVQKVILNYP [A8G] | 3.24 |
| PGQPLPGKSVRGLHPVQKVILNYP [A8K] | 2.62 |
| PGQPLPGVSVRGLHPVQKVILNYP [A8V] | 2.39 |
| PGQPLPGHSVRGLHPVQKVILNYP [A8H] | 2.97 |
| PGQPLPGLSVRGLHPVQKVILNYP [A8L] | 3.21 |
| PGQPLPGPSVRGLHPVQKVILNYP [A8P] | 3.08 |
| PGQPLPGNSVRGLHPVQKVILNYP [A8N] | 3.47 |
| PGQPLPGASVRGLHPVQKDILNYP [V19D] | 3.23 |
| PGQPLPGASVRGLHPVQKTILNYP [V19T] | 3.59 |
| PGQPLPGASVRGLHPVQKRILNYP [V19R] | 2.82 |
| PGQPLPGASVRGLHPVQKFILNYP [V19F] | 2.45 |
| PGQPLPGASVRGLHPVQKYILNYP [V19Y] | 2.91 |
| PGQPLPGASVRGLHPVQKCILNYP [V19C] | 3.16 |
| PGQPLPGASVRGLHPVQKKILNYP [V19K] | 3.32 |

| Variant | protein stability index |
| --- | --- |
| PGQPLPGASVRGLHPVQKQILNYP [V19Q] | 3.71 |
| PGQPLPGAPVRGLHPVQKVILNYP [S9P] | 3.58 |
| PGQPLPGARVRGLHPVQKVILNYP [S9R] | 2.22 |
| PGQPLPGAWVRGLHPVQKVILNYP [S9W] | 2.97 |
| PGQPLPGAIVRGLHPVQKVILNYP [S9I] | 2.16 |
| PGQPLPGALVRGLHPVQKVILNYP [S9L] | 3.09 |
| PGQPLPGAAVRGLHPVQKVILNYP [S9A] | 3.99 |
| PGQPLPGADVRGLHPVQKVILNYP [S9D] | 3.08 |
| PGQPTPGASVRGLHPVQKVILNYP [L5T] | 3.88 |
| PGQPFPGASVRGLHPVQKVILNYP [L5F] | 2.29 |
| PGQPQPGASVRGLHPVQKVILNYP [L5Q] | 3.95 |
| PGQPMPGASVRGLHPVQKVILNYP [L5M] | 3.44 |
| PGQPYPGASVRGLHPVQKVILNYP [L5Y] | 3.48 |
| PGQPPPGASVRGLHPVQKVILNYP [L5P] | 3.64 |
| PGQPHPGASVRGLHPVQKVILNYP [L5H] | 3.42 |
| PGQPLPGASVRGLHPVQKVDLNYP [I20D] | 3.84 |
| PGQPLPGASVRGLHPVQKVCLNYP [I20C] | 3.25 |
| PGQPLPGASVRGLHPVQKVPLNYP [I20P] | 3.36 |
| PGQPLPGASVRGLHPVQKVALNYP [I20A] | 3.89 |
| PGQPLPGASVRGLHPVQKVRLNYP [I20R] | 3.89 |
| PGQPLPGASVRGLHPVQKVNLNYP [I20N] | 3.72 |
| PGQPLPGASVRGLHPVQKVVLNYP [I20V] | 2.93 |
| PGQPLPHASVRGLHPVQKVILNYP [G7H] | 3.2 |
| PGQPLPMASVRGLHPVQKVILNYP [G7M] | 3 |

| Variant | protein stability index |
| --- | --- |
| PGQPLPPASVRGLHPVQKVILNYP [G7P] | 3.04 |
| PGQPLPRASVRGLHPVQKVILNYP [G7R] | 2.69 |
| PGQPLPKASVRGLHPVQKVILNYP [G7K] | 2.76 |
| PGQPLPEASVRGLHPVQKVILNYP [G7E] | 3.55 |
| PGQPLPGASVRILHPVQKVILNYP [G12I] | 2.63 |
| PGQPLPGASVRRLHPVQKVILNYP [G12R] | 2.76 |
| PGQPLPGASVRALHPVQKVILNYP [G12A] | 3.69 |
| PGQPLPGASVRSLHPVQKVILNYP [G12S] | 3.39 |
| PGQPLPGASVRVLHPVQKVILNYP [G12V] | 2.43 |
| PGQPLPGASVRFLHPVQKVILNYP [G12F] | 2.3 |
| PGQPLPGASVRWLHPVQKVILNYP [G12W] | 1.96 |
| PGQELPGASVRGLHPVQKVILNYP [P4E] | 3.52 |
| PGQYLPGASVRGLHPVQKVILNYP [P4Y] | 2.77 |
| PGQQLPGASVRGLHPVQKVILNYP [P4Q] | 3.29 |
| PGQILPGASVRGLHPVQKVILNYP [P4I] | 2.41 |
| PGQALPGASVRGLHPVQKVILNYP [P4A] | 3.17 |
| PGQCLPGASVRGLHPVQKVILNYP [P4C] | 2.73 |
| PGQFLPGASVRGLHPVQKVILNYP [P4F] | 2.92 |
| PGQNLPGASVRGLHPVQKVILNYP [P4N] | 2.06 |
| PGQWLPGASVRGLHPVQKVILNYP [P4W] | 2.84 |
| PGQGLPGASVRGLHPVQKVILNYP [P4G] | 2.22 |
| PGQTLPGASVRGLHPVQKVILNYP [P4T] | 4.15 |
| PGQPLPGASVRGLHPAQKVILNYP [V16A] | 3.24 |
| PGQPLPGASVRGLHPEQKVILNYP [V16E] | 3.44 |

| Variant | protein stability index |
| --- | --- |
| PGQPLPGASVRGLHPPQKVILNYP [V16P] | 2.66 |
| PGQPLPGASVRGLHPTQKVILNYP [V16T] | 3.36 |
| PGQPLPGASVRGLHPHQKVILNYP [V16H] | 3.03 |
| PGQPLPGASVRGLHPCQKVILNYP [V16C] | 2.93 |
| PGQPLPGASVRGRHPVQKVILNYP [L13R] | 3.68 |
| PGQPLPGASVRGDHPVQKVILNYP [L13D] | 3.68 |
| PGQPLPGASVRGSHPVQKVILNYP [L13S] | 3.42 |
| PGQPLPGASVRGEHPVQKVILNYP [L13E] | 3.9 |
| PGQPLPGASVRGNHPVQKVILNYP [L13N] | 3.36 |
| PGQPLPGASVRGYHPVQKVILNYP [L13Y] | 2.26 |
| PGQPLPGASVRGWHPVQKVILNYP [L13W] | 3.02 |
| PGQPLPGASVRGGHPVQKVILNYP [L13G] | 3.31 |
| PGQPLPGASVRGPHPVQKVILNYP [L13P] | 3.84 |
| PGQPLPGASVRGIHPVQKVILNYP [L13I] | 3.1 |
| PGQPLPGASVRGAHPVQKVILNYP [L13A] | 3.38 |
| PGQPLPGASVRGLHGVQKVILNYP [P15G] | 2.76 |
| PGQPLPGASVRGLHDVQKVILNYP [P15D] | 3.53 |
| PGQPLPGASVRGLHEVQKVILNYP [P15E] | 3.12 |
| PGQPLPGASVRGLHIVQKVILNYP [P15I] | 1.76 |
| PGQPLPGASVRGLHNVQKVILNYP [P15N] | 2.92 |
| PGQPLPGASVRGLHCVQKVILNYP [P15C] | 2.13 |
| PGQPLPGASVRGLHQVQKVILNYP [P15Q] | 3.85 |

— the supplement of paper PMC10567573
